Assay results published in US20260274921A1 (ADAPTOCUE, published 2026).

Tests used:
[1] = target: T1, human CD47 (cluster of differentiation 47), on cells (human, UniProt Q08722 19-323); test: FACS on primary human platelets, pH 7.3
T1 construct: whole, on cells; also called IAP; integrin-associated protein
Experimental: Human primary platelets were seeded into 96-well plate at 1×10⁶/well and incubated with Fc blocking antibody at room temperature. […] After washing the platelets with 1×PBS+2% FBS at pH 7.3, FITC-labelled anti-human IgG Fc secondary antibody (Abcam, CAT #ab6854) were added and incubated at 4° C. for 30 minutes at pH 7.3. After washing, the platelets were then analyzed by FACS in 1×PBS+2% FBS at pH 7.3.

[2] = target: T2, His-tagged CD47 extracellular domain (ECD) protein (Abclonal, CAT #RP01306) (human, UniProt Q08722 19-139); test: ELISA, immobilized His-tagged CD47 ECD, fusion protein as analyte
T2 construct: extracellular domain; Bought; also called recombinant human CD47 protein with His-tag; His-tag human CD47 ECD protein

B1: MP-24, SIRPαV2 IgV WT-IgG1 Fc hole silent + aCD3 VH-CH1-IgG1 Fc knob silent + aCD3 VL-CL (bispecific antibody)
chain: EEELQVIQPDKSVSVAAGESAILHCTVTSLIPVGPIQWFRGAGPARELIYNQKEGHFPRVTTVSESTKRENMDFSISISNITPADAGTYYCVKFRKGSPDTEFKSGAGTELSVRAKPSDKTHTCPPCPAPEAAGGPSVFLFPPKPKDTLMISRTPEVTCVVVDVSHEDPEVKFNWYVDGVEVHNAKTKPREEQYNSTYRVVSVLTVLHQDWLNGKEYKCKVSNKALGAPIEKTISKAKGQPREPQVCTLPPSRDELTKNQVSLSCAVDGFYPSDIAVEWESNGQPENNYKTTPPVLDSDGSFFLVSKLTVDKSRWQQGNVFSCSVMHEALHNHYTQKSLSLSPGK
heavy: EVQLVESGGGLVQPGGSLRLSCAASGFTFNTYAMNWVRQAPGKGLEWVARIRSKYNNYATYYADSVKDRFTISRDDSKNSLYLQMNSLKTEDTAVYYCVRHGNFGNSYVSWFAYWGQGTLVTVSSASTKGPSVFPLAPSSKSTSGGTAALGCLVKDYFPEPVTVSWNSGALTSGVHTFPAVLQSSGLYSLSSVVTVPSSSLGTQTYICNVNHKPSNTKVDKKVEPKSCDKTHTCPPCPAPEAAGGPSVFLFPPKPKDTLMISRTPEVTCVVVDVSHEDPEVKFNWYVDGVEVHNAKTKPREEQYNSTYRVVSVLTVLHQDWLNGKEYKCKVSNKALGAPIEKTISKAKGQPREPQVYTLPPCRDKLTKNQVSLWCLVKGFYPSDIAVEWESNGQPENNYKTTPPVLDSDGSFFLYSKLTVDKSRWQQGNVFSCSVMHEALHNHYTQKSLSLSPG
light: QAVVTQEPSLTVSPGGTVTLTCRSSTGAVTTSNYANWVQQKPGQAPRGLIGGTNKRAPWTPARFSGSLLGGKAALTITGAQAEDEADYYCALWYSNLWVFGGGTKLTVLGQPKAAPSVTLFPPSSEELQANKATLVCLISDFYPGAVTVAWKADSSPVKAGVETTTPSKQSNNKYAASSYLSLTPEQWKSHRSYSCQVTHEGSTVEKTVAPTECS
notes: Format FV-67; one wild type SIRPαV2 IgV monomer; also called monovalent wild type SIRPαV2 IgV-IgG1 Fc protein
- binding result [1]: binds
- binding result [2]: binds
